{
  "source": "patent US20220204610A1",
  "about": "“PROTEIN BINDERS FOR IRHOM2” (NEW YORK SOCIETY FOR THE RELIEF OF THE RUPTURED AND …, priority 2019, published 2022)",
  "molecules": {"B1": {"name": "4H8-E3: Mouse IgM monoclonal antibody against the human iRhom2 juxtamembrane domain adjacent to TMD1; HC VD SEQ ID NO 33, LC VD SEQ ID NO 40 (antibody, V domains shown)", "VH": "EVQLQQSGPELVKPGASVKISCKASGYTFTDYYMNWVKQSHGKSLEWIGDINPNNGGTSYNQKFKGKATLTVDKSSNTAYMEFRSLTSEDSAVYYCARRGYYGVDYWGQGTTLTVSS", "VL": "NIVMTQSPKSMSMSVGERVTLNCKASENVGTYVSWYQQKPEQSPKLLIFGASNRYTGVPDRFIGSGFATDFTLTISSVQAEDLADYHCGQSYSYPYTFGGGTKLEIK", "modifications": "IgM constant regions; antibody sequence"}},
  "key": {"human iRhom2 [1]": {"molecular_target": "T1, human iRhom2 (Homo sapiens, UniProt Q6PJF5)", "T1 construct": "the single peptide 3 resembling amino acids 431 to 459 of the extracellular juxtamembrane domain of human iRhom2; made in house; host or cells: chemical synthesis (Fmoc solid phase peptide synthesis), no expression host", "T1 sequence (Q6PJF5 with tags, fused parts or gaps)": "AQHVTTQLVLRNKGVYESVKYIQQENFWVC", "test": "Peptide binding ELISA, binding specificity (Example 10), iRhom2 peptides", "conditions": "antibody 3 μg/ml PBS; peptide coated at 10 μg/ml; normalized to IgM isotype control", "protocol": "(§1) Another series of peptide binding ELISA experiments was conducted to address the specificity of the purified antibody 4H8-E3 of the invention, i.e. to question whether this antibody specifically recognizes peptides, in particular peptide 3, resembling the extracellular juxtamembrane region adjacent to the TMD1 of human iRhom2, or whether the antibody 4H8-E3 of the invention also binds to peptides reflecting the homologous region of the closely related family member human iRhom1.\n(§2) In brief, on day 1, Nunc black MaxiSorp® 96-well plates (Thermo Fisher Scientific, USA) were coated overnight with 100 μl per well of single biotinylated peptides 1 to 4, Mix A consisting of peptides 1 to 4, single biotinylated peptides 1b to 4b, and Mix D consisting of peptides 1b to 4b at 10 μg/m1 PBS each (thus, the final concentration of each peptide in both mixes was 2.5 μg/m1) at 4° C. On day 2, peptide solutions were removed and MaxiSorp® plates were blocked with 300 μl per well of Pierce protein-free (TBS) blocking buffer (Thermo Fisher Scientific, USA) at room temperature for 1.5 hours. […] Using an infinite M1000 PRO (Tecan Group, Switzerland) microplate reader, the fluorescence of each well was collected at an excitation wavelength of 435 nm and an emission wavelength of 555 nm."}, "human iRhom2 [2]": {"tested_on": "human iRhom2", "test": "Peptide binding ELISA, binding specificity (Example 10), iRhom2 peptides", "conditions": "antibody 3 μg/ml PBS; peptides coated at 10 μg/ml; normalized to IgM isotype control", "protocol": "as §1, §2"}},
  "data": [
    {"molecule": "B1", "values": [
      {"measurement": "binding to single peptide 3 (amino acids 431 to 459 of human iRhom2)", "setting": "human iRhom2 [1]", "result": "Binding"},
      {"measurement": "binding to Mix A consisting of peptides 1, 2, 3 and 4", "setting": "human iRhom2 [2]", "result": "Binding"}
    ]}
  ]
}
